One molecule from PMC5414179, “Functional characterization of a multi-cancer risk locus on chr5p15.33 reveals regulation of TERT by ZNF148” can be followed below.

The target of this data set is T1, ZNF148 (ZBP-89), recombinant (Homo sapiens, UniProt Q9UQR1 1-794).
T1 sequence: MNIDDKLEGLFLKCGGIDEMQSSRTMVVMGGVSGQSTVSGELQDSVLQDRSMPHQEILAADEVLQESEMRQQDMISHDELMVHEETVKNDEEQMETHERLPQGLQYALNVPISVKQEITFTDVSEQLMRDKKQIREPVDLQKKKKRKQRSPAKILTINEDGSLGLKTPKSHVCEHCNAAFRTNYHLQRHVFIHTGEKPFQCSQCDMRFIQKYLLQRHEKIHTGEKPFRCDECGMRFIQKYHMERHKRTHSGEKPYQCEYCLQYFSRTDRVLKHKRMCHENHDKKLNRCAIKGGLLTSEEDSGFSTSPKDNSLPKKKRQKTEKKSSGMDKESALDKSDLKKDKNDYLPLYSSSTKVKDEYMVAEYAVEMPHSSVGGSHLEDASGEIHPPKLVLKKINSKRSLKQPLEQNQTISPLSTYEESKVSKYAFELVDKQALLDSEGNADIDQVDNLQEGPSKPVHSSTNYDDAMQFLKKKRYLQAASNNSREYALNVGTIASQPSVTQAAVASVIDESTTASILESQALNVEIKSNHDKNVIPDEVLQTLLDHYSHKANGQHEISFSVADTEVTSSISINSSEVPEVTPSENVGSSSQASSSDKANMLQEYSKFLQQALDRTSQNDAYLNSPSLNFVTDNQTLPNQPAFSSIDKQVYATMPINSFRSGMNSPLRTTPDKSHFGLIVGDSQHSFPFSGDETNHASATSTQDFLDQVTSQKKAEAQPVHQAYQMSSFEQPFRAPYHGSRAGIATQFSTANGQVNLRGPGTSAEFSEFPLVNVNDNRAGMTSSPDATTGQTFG
The data set is described as follows: EMSA; positive control; EMSA: 10 ug nuclear extract or 90-630 ng recombinant ZNF148 with 3'-biotin probe, 20 min on ice, 4-20% TBE gel; antibody preincubation 20 min at room temperature; buffer, salt and pH not stated. The following applies: protein: commercial; label: 3' biotin; blunt. On the technique in general: In EMSA bound probe runs differently from free probe, usually more slowly.

B1: ZNF148 binding motif, CDKN1A/p21 promoter (dsDNA)
DNA 1: CGCAGGCGAGGGACTGGGGGAGGAGGGAAGTGCCC
DNA 2: GGGCACTTCCCTCCTCCCCCAGTCCCTCGCCTGCG
On to B1, for which the binding result is “binds”.
